Series [1] deals with Streptococcus mutans. Put plainly: MIC by micro-dilution (BSAC). In kind it is cell-based. A general note: In broth dilution the organism is exposed to a series of concentrations in liquid medium.
Series [2] has as its system Bacillus subtillis. The experiment in a line: MIC by micro-dilution (BSAC). In kind it is cell-based.
In series [3] the test system is Listeria monocytogenes. Put plainly: MIC by micro-dilution (BSAC). In kind it is cell-based.
The nature of series [4]: enzyme stability of the peptide (activity in AU/ml after enzyme treatment).
Setting [5] is: following treatment with protease.

For orientation: MIC means the lowest concentration found to suppress growth. Low values mean greater potency, high ones weaker potency. Consider “peptide NI01: antimicrobial peptide (bacteriocin, SEQ ID NO:3) obtained from a Staphylococcal culture; C terminal sequence QSFEWIYKQIKKLWA (MAAFMKLIQFLATKGQKYVSLAWKHKGTILKWINAGQSFEWIYKQIKKLWA; NOI01 polypeptide)”, for which the MIC in series [1] (Streptococcus mutans 263) is 2 µg/mL; in series [1] (Streptococcus mutans 313), 0.12 µg/mL; in series [2] it was less than 0.125 µg/mL; in series [3] it was less than 0.125 µg/mL. Moreover, the activity after treatment in series [4] (setting [5]) came to 160 AU/ml; in series [4] (treatment with trypsin), 320 AU/ml. Further, in series [4] (setting [5]), the reduction in activity is recorded as 75%. Further, in series [4] (partially purified peptide, starting activity), the “activity before enzyme treatment” value came out at 640 AU/ml. In addition, in series [4] (treatment with trypsin), the reduction of activity turned out to be 50%.

These data come from patent US9428551B2, “Antimicrobial peptides” (priority 2009, dated 2016).
